Patent publication US20230203142A1, “TREATMENT OF METABOLIC DISORDERS THROUGH THE TARGETING OF A NOVEL CIRCULATING HORMONE COMPLEX” (The President and Fellows of Harvard College, priority 2020, published 2023)

What was measured:
INS1 cells = assay: ER stress and cell death markers (Western blot, QPCR); type: cell-based, rat; conditions: combined stimulation with complex and ER stress-inducer Tg
Text: The purinergic P2Y receptors activate two downstream signaling pathways; phospholipase C (PLC), which promotes the generation of IP3, as well as inhibition of cAMP generation through the activation of G proteins (Sabala et al., 2001; Seo et al., 2016). These pathways directly influence calcium flux, which regulates both insulin secretion and survival. To elucidate how the NDPK-ADK/FABP4 complex influences beta cell function to promote diabetes, the intracellular effects mediated by this complex were examined using western blotting and quantitative PCR. Western blotting and quantitative PCR (QPCR) were performed as previously described (Prentice et al., 2018). […] Protein content was evaluated by BCA (Invitrogen, USA). […]
ER calcium homeostasis is essential for a variety of processes and reduced ER calcium can induce ER stress through the accumulation or inappropriate secretion of misprocessed or misfolded proteins (Engin et al., 2014; Engin et al., 2013). […] Cells were treated for 2 hours with increasing doses of Thapsigargin or 18 hours with increasing doses of cytokines (1=TNFα (Peprotech #315-05-20 ug) […], IFNγ (Peprotech #315-01A-20 ug) 100 ng/ml, IL-1β (R&D Systems #401-ML-005) 5 ng/ml), washed with PBS, and cleaved caspase 3/7 activity was determined using the Promega Caspase-Glo 3/7 Assay System, according to manufacturer's instructions.

FABP4 = FABP4 (Homo sapiens, UniProt P15090); assay: Antibody binding affinity for FABP4; conditions: compared to traditional therapeutic antibodies
Chain of FABP4 (P15090 whole entry): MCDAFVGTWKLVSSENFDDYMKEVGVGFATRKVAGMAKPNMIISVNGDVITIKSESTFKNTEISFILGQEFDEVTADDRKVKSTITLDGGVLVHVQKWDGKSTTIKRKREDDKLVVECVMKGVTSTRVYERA

primary human islets = assay: Glucose-stimulated insulin secretion (GSIS), human islets; type: cell-based
Protocol: Primary islet isolation from mice was performed as previously described (Batchuluun et al., 2018; Prentice et al., 2014) and GSIS was assessed following acute treatment with NDPK-ADK in the presence or absence of FABP4. Insulin secretion assays were performed as previously described (Prentice et al., 2014). For primary islets, 20 islets were hand-picked into 1.5 ml tubes, washed twice with Krebs Ringer Buffer (KRB) without glucose, and pre-incubated in 500 μl low glucose (LG; 2.8 mM) KRB for 1 hour at 37° C. KRB was then removed and 250 μl of fresh LG KRB added. Islets were incubated for 20 minutes at 37° C. Supernatant was collected and 250 μl high glucose (HG; 16.7 mM) KRB added. Islets were incubated for 20 minutes at 37° C. In conditions where KCl was used, HG KRB was collected, and 250 μl KC1 (16.7 mM glucose, 30 mM KCl) KRB added. Islets were incubated for 20 minutes at 37° C., and supernatant collected. Following the stimulation protocol, cells were lysed in 100 μl acid ethanol (70% ethanol, 1% HCl in water) and stored at 4° C. overnight. Samples were evaporated using a SpeedVac until dried, and resuspended in 60 μl ultrapure water. DNA was quantified by Nanodrop (ThermoFisher, USA). Insulin from supernatant was quantified using insulin HTRF (Insulin Ultrasensitive Assay kit 62IN2PEH; Cisbio, USA). […]

recombinant NDPK = target: T1, recombinant NDPK (Homo sapiens, UniProt P15531); assay: Recombinant kinase activity assay, NDPK (ADP-Glo/Kinase-Glo); type: biochemical
T1 construct: purchased Acro Biosystems NM1-H5147
T1 sequence (P15531 whole entry): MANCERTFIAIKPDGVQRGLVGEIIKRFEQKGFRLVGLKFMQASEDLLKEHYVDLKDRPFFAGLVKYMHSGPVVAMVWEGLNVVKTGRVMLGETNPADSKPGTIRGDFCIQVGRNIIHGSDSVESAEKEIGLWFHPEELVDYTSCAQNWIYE
Protocol: An on-bead kinase assay was developed to measure the activity of endogenous NDPK and ADK pulled down from serum using a-Ab or c-Ab conjugated beads. Both NDPK and ADK are bi-directional kinases that will produce ATP or ADP depending on the substrates provided (FIGS. 4B-C). Kinase activity assays were performed in 384-well plates in reaction buffer (PBS with 0.1% BSA, 0.01% F-127, 5 mM MgCl2). Experiments with recombinant proteins were performed at final concentrations of 40 μg/ml for ADK and FABP4, and 20 ug/ml for NDPK, and a reaction volume of 10 μl. Antibodies were used at a final concentration of 80 ug/ml. Substrates were added in equimolar ratios depending on the kinase being assayed and the direction of the reaction in serial dose responses, with the highest concentration of 5 μM. Proteins and substrates were incubated for 1 hr at room temperature, and ADP and ATP production were monitored using ADP-Glo and Kinase-Glo kits, respectively, according the manufacturer instructions (V6930 and V6711 Promega, USA). Luminescence was quantified using a SpectraMax Paradigm plate reader 30 min after the addition of substrate. Consistent with the MS results, ADK activity, as measured by generation of ATP, was specifically observed in samples pulled down with a-Ab but not c-Ab (FIG. 5A). […] To test this possibility, the ATP and ADP generating activity of recombinant ADK was assessed in the presence of the proposed complex components.

binding affinity for recombinant FABP4 (FABP4): relatively weak binding affinity
ADP producing capacity of NDPK (recombinant NDPK; in the presence of the complex components): rescued
activity of NDPK to generate ADP (recombinant NDPK; recombinant NDPK plus the added component): no effect
B1: a-Ab: monoclonal antibody previously reported as CA33; heavy chain SEQ ID NO 446, light chain SEQ ID NO 447; binds FABP4 and NDPK (antibody, listed as Homo sapiens)
heavy: QSVEESGGRLVTPGTPLTLTCTVSGFSLSTYYMSWVRQAPGKGLEWIGIIYPSGSTYCASWAKGRFTISKASTTVDLKITSPTTEDTATYFCARPDNDGTSGYLSGFGLWGQGLVTVSSAKTTPPSVYPLAPGSAAQTNSMVTLGCLVKGYFPEPVTVTWNSGSLSSGVHTFPAVLQSDLYTLSSSVTVPSSTWPSETVTCNVAHPASSTKVDKKIVPRDC
light: DVVMTQTPASVSEPVGGTVTIKCGASEDISRYLVWYQQKPGQPPKRLIYKASTLASGVPSRFKGSGSGTDFTLTISDLECDDAATYYCQCTYGTYAGSFFYSFGGGTEVVVERTDAAPTVSIFPPSSEQLTSGGASVVCFLNNFYPKDINVKWKIDGSERQNGVLNSWTDQDSKDCTYSMSSTLTLTKDEYERHNSYTCEATHKTSTSPIVKSFNRNEC
ER stress markers Chop and Bip (Grp78) (INS1 cells): rescued
GSIS in response to the NDPK-ADK/FABP4 complex (primary human islets): rescued
